In experiment [1] the target is T1, human CD8 (Homo sapiens, UniProt P01732 22-235; A6NJW9 19-210).
T1 construct: CD8 as carried by purified human T cells, HPB-ALL leukemia cells, human tissues and CD8+ cells in patients; also called huCD8; CD8 glycoprotein
Description: binding to CD8 glycoprotein; method not given.

For experiment [2], the target named is T1, human CD8. As to the kind of experiment: cell binding; read as purified human T cells ('respectively' taken to mean the cell types, as in p-1525).
In experiment [3] the target is T1, human CD8. Description: cell binding; read as HPB-ALL cells ('respectively' taken to mean the cell types, as in p-1525).
Experiment [4] addresses T1, human CD8. Description: flow cytometry on human T cells carrying CD8. Here is the method: (§1) The binding affinity and specificity of IAB22M2C and Zr-Df-IAB22M2C to human CD8 expressed on cell surfaces were evaluated by flow cytometry for a several cell types, including HPB-ALL leukemia cells (DSMZ, Braunschweig, Germany), purified human T cells, and PC3 prostate cancer cells engineered to express huCD8 (ImaginAb, Inc.).

The target in experiment [5] is T1, human CD8. As to the kind of experiment: flow cytometry on HPB-ALL cell line carrying CD8. The procedure: as §1
In general terms: Flow cytometry measures light scatter and fluorescence of single cells or particles in a stream.

T1 sequence (P01732 22-235 limits assumed, chain 1 of 2): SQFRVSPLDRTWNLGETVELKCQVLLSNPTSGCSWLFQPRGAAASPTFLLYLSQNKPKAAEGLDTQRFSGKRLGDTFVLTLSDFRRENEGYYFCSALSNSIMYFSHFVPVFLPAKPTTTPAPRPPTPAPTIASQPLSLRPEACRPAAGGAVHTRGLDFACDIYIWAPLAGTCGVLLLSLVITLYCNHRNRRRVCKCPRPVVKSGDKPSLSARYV
T1 sequence (A6NJW9 19-210 C51R/T71A limits assumed, chain 2 of 2): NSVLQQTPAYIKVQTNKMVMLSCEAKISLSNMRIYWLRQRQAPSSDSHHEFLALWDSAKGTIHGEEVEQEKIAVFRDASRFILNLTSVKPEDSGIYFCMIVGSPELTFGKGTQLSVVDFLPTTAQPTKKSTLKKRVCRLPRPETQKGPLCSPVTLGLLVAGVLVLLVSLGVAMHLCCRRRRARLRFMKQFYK

B1: 89Zr-Df-IAB22M2C (other)
chain: DVQITQSPSSLSASVGDRVTITCRTSRSISQYLAWYQQKPGKVPKLLIYSGSTLQSGVPSRFSGSGSGTDFTLTISSLQPEDVATYYCQQHNENPLTFGGGTKVEIKGSTSGGGSGGGSGGGGSSEVQLVESGGGLVQPGGSLRLSCAASGFNIKDTYIHFVRQAPGKGLEWIGRIDPANDNTLYASKFQGKATISADTSKNTAYLQMNSLRAEDTAVYYCGRGYGYYVFDHWGQGTLVTVSSEPKSSDKTHTCPPCPPCGGGSSGGGSGGQPREPQVYTLPPSREEMTKNQVSLTCLVKGFYPSDIAVEWESNGQPENNYKTTPPVLDSDGSFFLYSKLTVDKSRWQQGNVFSCSVMHEALHNHYTQKSLSLSPG
modifications: deferoxamine (Df) conjugated to lysine residues, radiolabeled with 89Zr
notes: Radiolabeled drug product; Same polypeptide as m1; For patients it is formulated together with cold unconjugated IAB22M2C; also called 89Zr-Df-IAB22M Lot: 42-040A; CD8 PET tracer
As to B1, the EC50 (usually the concentration needed to bring the measured effect to its halfway point) in experiment [1] was 400 pM.

B2: Df-IAB22M2C (other)
chain: B1 chain
modifications: deferoxamine (Df) conjugated to lysine residues; chelator:minibody ratio of approximately 2
notes: Same polypeptide as m1; also called desferrioxamine-conjugated IAB22M2C; Df-IAB22M2C critical intermediate
Take B2: the EC50 in experiment [2] was determined as 400 pM; in experiment [3], 300 pM.

B3: IAB22M2C (other)
chain: B1 chain
notes: also called IAB22M2C Mb; IAB22M2C minibody
On to B3, for which the values for the EC50 in experiment [4] and in experiment [5] were 400 pM and 300 pM, respectively.

The record behind these values is patent US20220001043A1 (IMAGINAB, published 2022).
